According to publication PMC12170345 (Nature Structural & Molecular Biology, 2025):

B1: ARMC9 (full length, GFP- or mCherry-tagged) (natural protein, human, UniProt Q7Z3E5 1-818, looked up)
chain: MGDILAHESELLGLVKEYLDFAEFEDTLKTFSKECKIKGKPLCKTVGGSFRDSKSLTIQKDLVAAFDNGDQKVFFDLWEEHISSSIRDGDSFAQKLEFYLHIHFAIYLLKYSVGRPDKEELDEKISYFKTYLETKGAALSQTTEFLPFYALPFVPNPMVHPSFKELFQDSWTPELKLKLIKFLALISKASNTPKLLTIYKENGQSNKEILQQLHQQLVEAERRSVTYLKRYNKIQADYHNLIGVTAELVDSLEATVSGKMITPEYLQSVCVRLFSNQMRQSLAHSVDFTRPGTASTMLRASLAPVKLKDVPLLPSLDYEKLKKDLILGSDRLKAFLLQALRWRLTTSHPGEQRETVLQAYISNDLLDCYSHNQRSVLQLLHSTSDVVRQYMARLINAFASLAEGRLYLAQNTKVLQMLEGRLKEEDKDIITRENVLGALQKFSLRRPLQTAMIQDGLIFWLVDVLKDPDCLSDYTLEYSVALLMNLCLRSTGKNMCAKVAGLVLKVLSDLLGHENHEIQPYVNGALYSILSVPSIREEARAMGMEDILRCFIKEGNAEMIRQIEFIIKQLNSEELPDGVLESDDDEDEDDEEDHDIMEADLDKDELIQPQLGELSGEKLLTTEYLGIMTNTGKTRRKGLANVQWSGDEPLQRPVTPGGHRNGYPVVEDQHTPPQTAQHARNGHPQALPAAHEAVYREGKPSTPESCVSSSSAIIAKPGEWLPRGRQEEPRPAPTGTPRQPREAPQDPGNGVTTRECASAFTCKPRAPCTPEMLDWNPPKAKASVLAPLFSSCGPQQASRPGSTASSTRGLPSSQSHRK
notes: ARMC9, human, full-length protein; Dimer by single-molecule counting; multimers by SEC; also called GFP–ARMC9; GFP-ARMC9 FL; source: HEK293T, transiently transfected; purified (StrepTactin beads) for in vitro assays; in lysate for coimmunoprecipitation; not shown: GFP or mCherry, N-terminal, kept
B2: CEP104 (full length, GFP- or mCherry-tagged) (natural protein, human, UniProt O60308 1-925, looked up)
chain: MPHKIGFVVVSSSGHEDGFSARELMIHAPTVSGWRSPRFCQFPQEIVLQMVERCRIRKLQLLAHQYMISSKIEFYISESLPEYFAPYQAERFRRLGYVSLCDNEKTGCKARELKSVYVDAVGQFLKLIFHQNHVNKYNIYNQVALVAINIIGDPADFSDESNTASREKLIDHYLGHNSEDPALEGTYARKSDYISPLDDLAFDMYQDPEVAQIIRKLDERKREAVQKERYDYAKKLKQAIADLQKVGERLGRYEVEKRCAVEKEDYDLAKEKKQQMEQYRAEVYEQLELHSLLDAELMRRPFDLPLQPLARSGSPCHQKPMPSLPQLEERGTENQFAEPFLQEKPSSYSLTISPQHSAVDPLLPATDPHPKINAESLPYDERPLPAIRKHYGEAVVEPEMSNADISDARRGGMLGEPEPLTEKALREASSAIDVLGETLVAEAYCKTWSYREDALLALSKKLMEMPVGTPKEDLKNTLRASVFLVRRAIKDIVTSVFQASLKLLKMIITQYIPKHKLSKLETAHCVERTIPVLLTRTGDSSARLRVTAANFIQEMALFKEVKSLQIIPSYLVQPLKANSSVHLAMSQMGLLARLLKDLGTGSSGFTIDNVMKFSVSALEHRVYEVRETAVRIILDMYRQHQASILEYLPPDDSNTRRNILYKTIFEGFAKIDGRATDAEMRARRKAATEEAEKQKKEEIKALQGQLAALKEIQAEVQEKESDAVKPKNQDIQGGKAAPAEALGIPDEHYLDNLCIFCGERSESFTEEGLDLHYWKHCLMLTRCDHCKQVVEISSLTEHLLTECDKKDGFGKCYRCSEAVFKEELPRHIKHKDCNPAKPEKLANRCPLCHENFSPGEEAWKAHLMGPAGCTMNLRKTHILQKAPALQPGKSSAVAASGPLGSKAGSKIPTPKGGLSKSSSRTYAKR
notes: CEP104, human, full-length protein; Cloned into pTT5-C1-based expression vectors (vector: Addgene 52355); Dimer by single-molecule counting; also called GFP–CEP104; mCherry–CEP104; source: HEK293T, transiently transfected; purified (StrepTactin beads) for in vitro assays; in lysate for coimmunoprecipitation; not shown: GFP or mCherry, N-terminal, kept

Key:
[1] = target: the molecule itself; test: single-molecule fluorescence intensity counting (TIRF microscopy); GFP-tagged protein diluted in PBS and immobilised on a plasma-cleaned coverslip; intensities compared with single GFP and GFP–EB3 dimers in adjacent chambers
[2] = target: TOGARAM1 (mouse, full length, GFP- or mCherry-tagged) (mouse, UniProt Q6A070 1-1776); test: cell-based or functional assay
[3] = target: T1, CCDC66 (full length, GFP- or mCherry-tagged) (human, UniProt A2RUB6 1-948); test: in vitro reconstitution on dynamic microtubules (TIRF microscopy); recruitment of one fluorescent protein to MTs by another that is on the MTs; 15 µM tubulin, with or without 20 nM EB3; MRB80, 50 mM KCl, 1 mM GTP, 30 °C; settings: both partners purified
T1 construct: CCDC66, human, full-length protein; source: HEK293T, transiently transfected; purified (StrepTactin beads) for in vitro assays; in lysate for coimmunoprecipitation; not shown: GFP or mCherry, N-terminal, kept
T1 sequence (looked up): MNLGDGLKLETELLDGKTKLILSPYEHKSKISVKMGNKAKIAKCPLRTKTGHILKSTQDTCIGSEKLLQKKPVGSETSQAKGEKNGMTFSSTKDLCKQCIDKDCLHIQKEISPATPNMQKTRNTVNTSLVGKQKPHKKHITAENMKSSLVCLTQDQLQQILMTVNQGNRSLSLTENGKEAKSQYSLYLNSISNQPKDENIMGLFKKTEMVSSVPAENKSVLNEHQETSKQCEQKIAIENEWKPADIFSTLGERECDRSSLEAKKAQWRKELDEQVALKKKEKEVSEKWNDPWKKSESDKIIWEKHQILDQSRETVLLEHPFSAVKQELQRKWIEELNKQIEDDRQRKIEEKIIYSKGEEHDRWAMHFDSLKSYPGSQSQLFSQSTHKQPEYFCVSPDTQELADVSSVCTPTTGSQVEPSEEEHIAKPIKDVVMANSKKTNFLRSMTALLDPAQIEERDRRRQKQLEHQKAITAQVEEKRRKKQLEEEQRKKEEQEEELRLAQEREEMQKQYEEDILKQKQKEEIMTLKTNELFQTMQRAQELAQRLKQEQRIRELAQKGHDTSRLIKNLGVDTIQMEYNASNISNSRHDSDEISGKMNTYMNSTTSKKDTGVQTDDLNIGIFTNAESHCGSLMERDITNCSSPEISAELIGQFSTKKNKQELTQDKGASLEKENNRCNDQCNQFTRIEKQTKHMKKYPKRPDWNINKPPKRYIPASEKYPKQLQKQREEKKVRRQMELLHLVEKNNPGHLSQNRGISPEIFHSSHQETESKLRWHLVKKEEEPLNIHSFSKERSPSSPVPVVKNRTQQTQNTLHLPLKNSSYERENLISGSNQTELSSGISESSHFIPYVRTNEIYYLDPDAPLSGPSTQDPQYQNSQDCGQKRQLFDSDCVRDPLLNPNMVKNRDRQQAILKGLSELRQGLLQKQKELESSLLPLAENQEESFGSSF

Chain of TOGARAM1 (mouse, full length, GFP- or mCherry-tagged) (Q6A070 whole entry): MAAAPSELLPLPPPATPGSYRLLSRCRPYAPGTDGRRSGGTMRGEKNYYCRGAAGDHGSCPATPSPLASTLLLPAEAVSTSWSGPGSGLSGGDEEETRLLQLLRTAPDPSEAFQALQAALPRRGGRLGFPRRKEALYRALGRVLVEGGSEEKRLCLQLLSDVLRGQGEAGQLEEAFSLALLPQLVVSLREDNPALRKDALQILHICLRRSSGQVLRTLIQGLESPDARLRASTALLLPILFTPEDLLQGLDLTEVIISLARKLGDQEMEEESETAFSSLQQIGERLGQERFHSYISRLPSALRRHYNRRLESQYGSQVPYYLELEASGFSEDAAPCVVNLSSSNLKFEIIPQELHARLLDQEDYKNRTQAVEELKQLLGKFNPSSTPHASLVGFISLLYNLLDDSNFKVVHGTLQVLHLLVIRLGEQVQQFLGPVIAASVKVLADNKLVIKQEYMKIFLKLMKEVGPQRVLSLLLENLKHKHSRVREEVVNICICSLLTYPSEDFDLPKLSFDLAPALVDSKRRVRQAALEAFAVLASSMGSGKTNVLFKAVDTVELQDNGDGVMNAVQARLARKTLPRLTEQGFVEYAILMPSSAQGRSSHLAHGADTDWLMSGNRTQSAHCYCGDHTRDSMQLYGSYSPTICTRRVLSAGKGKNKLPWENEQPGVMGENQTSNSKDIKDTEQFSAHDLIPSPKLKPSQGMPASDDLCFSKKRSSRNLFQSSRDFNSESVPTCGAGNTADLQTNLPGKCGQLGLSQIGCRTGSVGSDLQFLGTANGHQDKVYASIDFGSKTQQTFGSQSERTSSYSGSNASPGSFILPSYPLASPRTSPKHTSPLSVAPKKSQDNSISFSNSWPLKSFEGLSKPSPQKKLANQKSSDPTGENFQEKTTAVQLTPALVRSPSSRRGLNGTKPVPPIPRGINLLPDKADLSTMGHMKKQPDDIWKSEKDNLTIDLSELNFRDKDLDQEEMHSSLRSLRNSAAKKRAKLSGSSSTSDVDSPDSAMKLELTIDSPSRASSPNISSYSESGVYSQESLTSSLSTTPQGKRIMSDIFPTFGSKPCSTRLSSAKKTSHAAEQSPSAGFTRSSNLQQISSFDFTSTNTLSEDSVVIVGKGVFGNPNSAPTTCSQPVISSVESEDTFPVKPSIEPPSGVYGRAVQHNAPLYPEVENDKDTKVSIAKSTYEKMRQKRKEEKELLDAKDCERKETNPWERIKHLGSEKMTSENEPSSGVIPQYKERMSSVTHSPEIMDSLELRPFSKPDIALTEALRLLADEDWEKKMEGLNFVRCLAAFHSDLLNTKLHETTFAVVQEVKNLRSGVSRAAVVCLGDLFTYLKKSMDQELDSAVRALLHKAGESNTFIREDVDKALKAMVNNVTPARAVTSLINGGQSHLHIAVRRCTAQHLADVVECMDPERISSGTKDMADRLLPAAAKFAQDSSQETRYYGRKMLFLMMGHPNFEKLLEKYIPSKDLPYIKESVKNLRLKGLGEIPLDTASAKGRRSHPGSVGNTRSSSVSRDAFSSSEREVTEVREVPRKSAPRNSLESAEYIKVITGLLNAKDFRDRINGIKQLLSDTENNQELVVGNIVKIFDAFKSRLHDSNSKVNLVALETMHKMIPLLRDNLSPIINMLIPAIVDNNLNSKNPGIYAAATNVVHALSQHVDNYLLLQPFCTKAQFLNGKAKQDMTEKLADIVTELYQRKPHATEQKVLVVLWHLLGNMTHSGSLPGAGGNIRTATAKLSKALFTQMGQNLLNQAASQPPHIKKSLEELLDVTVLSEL

Binder | stoichiometry N [1] | rescue activity of TOGARAM1 on MTs in the presence of ARMC9 [2] | binding result [3]
B1 | 2 | ~2 fold | 
B2 | 2 |  | binds
